# Source: the supplement of paper PMC10065799, “High-throughput profiling of sequence recognition by tyrosine kinases and SH2 domains using bacterial peptide display” (eLife, 2023)
# Biological target: Hck (UniProt P08631)
# Experiment: phosphorylation enrichment, bacterial display (enrichment ratio); higher = better substrate or ligand; peptides without Tyr show the background
# 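Further: 11-residue human phosphosite peptides and single-mutation variants displayed on the E. coli surface, counted by deep sequencing, each peptide's frequency after selection divided by its frequency in the unselected input library; frequency after pTyr selection over input frequency; kinase dosed for 20-30% of maximal phosphorylation in three min.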
# Sequence of Hck (P08631 whole entry, looked up): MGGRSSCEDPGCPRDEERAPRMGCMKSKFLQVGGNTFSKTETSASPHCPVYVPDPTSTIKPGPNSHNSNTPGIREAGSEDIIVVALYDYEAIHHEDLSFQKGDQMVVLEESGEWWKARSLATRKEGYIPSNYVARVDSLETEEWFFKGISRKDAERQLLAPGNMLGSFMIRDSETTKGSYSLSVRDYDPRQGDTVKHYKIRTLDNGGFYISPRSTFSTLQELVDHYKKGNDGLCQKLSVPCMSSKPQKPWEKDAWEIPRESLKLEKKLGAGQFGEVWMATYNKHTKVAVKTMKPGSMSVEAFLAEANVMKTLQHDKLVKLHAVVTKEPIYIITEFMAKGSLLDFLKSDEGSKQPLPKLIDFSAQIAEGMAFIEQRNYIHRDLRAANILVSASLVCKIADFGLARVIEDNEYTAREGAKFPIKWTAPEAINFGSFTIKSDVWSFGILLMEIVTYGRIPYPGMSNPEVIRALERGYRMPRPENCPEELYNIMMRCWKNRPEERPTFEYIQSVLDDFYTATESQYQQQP
row,Sequence,phosphorylation enrichment
1,IENKLYGMSDS [RET_Y1062_P1067S],0.543
2,GVRLYYRVRES [RB1_Y454_M457R],0.408
3,KGERGYPGTPG [COL4A1_Y348],0.38
4,ANKNVYEVEPT [MEGF10_Y1075_R1072K],0.798
5,QQTFTYDSGIH [JUP_Y22_YF],1.85
6,ALKKPYGVLYK [RPF2_Y59],0.675
7,SAEEDYIADAK [KCNT1_Y876_M877I],0.554
8,SECCKYKIDNP [OSMR_Y689],0.381
9,FLAVGYHKLHI [IDS_Y225_P228L],0.427
10,TNYRLYLRSLE [MTM1_Y71],0.555
11,YQGGTYSKACT [FGG_Y380_S384C],0.541
12,LSDGPYSNPFE [EPOR_Y485_YF],0.843
13,DRFANYIEKVR [DES_Y122],0.42
14,PGIRMYRVQFN [LRFN1_Y454_Q455R_YF],0.485
15,WKEIEYEVVRD [CPS1_Y634],0.609
16,GHLFANDWISI [BEST1_Y227_Y227N_YF],0.502
17,KHGGNYVPAPE [OSCP1_Y237_K242E],0.325
18,GMAHNYRNRSQ [AASS_Y188_S191R],0.523
19,LAAPKYKLNVD [SMARCA2_Y1190_A1188P],0.551
20,PQAVRYIYTID [DCX_Y103_G100A],3.66
21,VSGIPYSQPKQ [NEU1_Y251_G252S],0.358
22,DAHFTYSRFPW [LY75_Y888_D884A_YF],5.79
23,NDHHVYLEGTL [ALDOB_Y223],0.53
24,HSRTRYERNIE [F2_Y434],0.766
25,QNTGDYCDLYG [PTPN11_Y62_Y63C],2.08
26,LVRPPYSFSAL [FOXI1_Y126_YF],0.423
27,LDCNEYFRDLN [HPRT1_Y198_Y195C],0.911
28,RLQEGYDHSYY [ESD_Y258],0.611
29,ATYRGYDSDNP [MMUT_Y146_H143Y],0.444

# Biological target: Jak2 (UniProt O60674)
# Experiment: as above
# Sequence of Jak2 (O60674 whole entry, looked up): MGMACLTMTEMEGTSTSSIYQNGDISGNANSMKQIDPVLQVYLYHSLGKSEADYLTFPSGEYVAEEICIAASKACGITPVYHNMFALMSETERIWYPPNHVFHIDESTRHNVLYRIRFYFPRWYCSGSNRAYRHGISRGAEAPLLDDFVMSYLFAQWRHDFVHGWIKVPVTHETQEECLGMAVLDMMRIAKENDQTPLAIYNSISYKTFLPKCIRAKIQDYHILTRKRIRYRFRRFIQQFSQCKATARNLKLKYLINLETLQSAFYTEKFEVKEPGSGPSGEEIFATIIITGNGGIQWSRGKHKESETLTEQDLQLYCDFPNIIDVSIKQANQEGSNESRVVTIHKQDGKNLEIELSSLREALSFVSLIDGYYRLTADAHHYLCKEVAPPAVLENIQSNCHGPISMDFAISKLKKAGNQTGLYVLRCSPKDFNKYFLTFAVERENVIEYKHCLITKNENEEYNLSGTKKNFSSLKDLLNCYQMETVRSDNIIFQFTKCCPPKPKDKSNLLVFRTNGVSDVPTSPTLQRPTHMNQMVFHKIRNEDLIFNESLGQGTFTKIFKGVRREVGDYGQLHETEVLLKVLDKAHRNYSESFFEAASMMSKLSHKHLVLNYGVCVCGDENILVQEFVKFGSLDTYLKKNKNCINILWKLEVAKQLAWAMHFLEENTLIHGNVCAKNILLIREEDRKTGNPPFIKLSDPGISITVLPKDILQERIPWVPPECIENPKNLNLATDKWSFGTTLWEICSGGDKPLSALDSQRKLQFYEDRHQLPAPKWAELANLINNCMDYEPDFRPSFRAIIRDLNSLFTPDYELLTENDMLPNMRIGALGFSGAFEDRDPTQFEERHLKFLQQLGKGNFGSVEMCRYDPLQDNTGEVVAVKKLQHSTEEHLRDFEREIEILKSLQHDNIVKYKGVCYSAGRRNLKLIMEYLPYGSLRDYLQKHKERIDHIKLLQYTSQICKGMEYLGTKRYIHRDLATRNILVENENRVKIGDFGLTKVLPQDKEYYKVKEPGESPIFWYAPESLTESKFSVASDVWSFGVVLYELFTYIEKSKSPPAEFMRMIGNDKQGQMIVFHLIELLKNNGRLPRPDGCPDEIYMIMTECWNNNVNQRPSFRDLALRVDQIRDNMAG
row,Sequence,phosphorylation enrichment
1,IENKLYGMSDS [RET_Y1062_P1067S],1.08
2,GVRLYYRVRES [RB1_Y454_M457R],0.964
3,KGERGYPGTPG [COL4A1_Y348],0.359
4,ANKNVYEVEPT [MEGF10_Y1075_R1072K],0.848
5,QQTFTYDSGIH [JUP_Y22_YF],0.985
6,ALKKPYGVLYK [RPF2_Y59],0.72
7,SAEEDYIADAK [KCNT1_Y876_M877I],1.2
8,SECCKYKIDNP [OSMR_Y689],0.658
9,FLAVGYHKLHI [IDS_Y225_P228L],1.13
10,TNYRLYLRSLE [MTM1_Y71],1.22
11,YQGGTYSKACT [FGG_Y380_S384C],0.59
12,LSDGPYSNPFE [EPOR_Y485_YF],0.862
13,DRFANYIEKVR [DES_Y122],1.02
14,PGIRMYRVQFN [LRFN1_Y454_Q455R_YF],0.844
15,WKEIEYEVVRD [CPS1_Y634],0.899
16,GHLFANDWISI [BEST1_Y227_Y227N_YF],0.782
17,KHGGNYVPAPE [OSCP1_Y237_K242E],0.471
18,GMAHNYRNRSQ [AASS_Y188_S191R],0.488
19,LAAPKYKLNVD [SMARCA2_Y1190_A1188P],0.353
20,PQAVRYIYTID [DCX_Y103_G100A],0.983
21,VSGIPYSQPKQ [NEU1_Y251_G252S],0.943
22,DAHFTYSRFPW [LY75_Y888_D884A_YF],1.29
23,NDHHVYLEGTL [ALDOB_Y223],0.662
24,HSRTRYERNIE [F2_Y434],0.742
25,QNTGDYCDLYG [PTPN11_Y62_Y63C],1.35
26,LVRPPYSFSAL [FOXI1_Y126_YF],0.553
27,LDCNEYFRDLN [HPRT1_Y198_Y195C],1.5
28,RLQEGYDHSYY [ESD_Y258],1.05
29,ATYRGYDSDNP [MMUT_Y146_H143Y],0.658

# Biological target: MERTK (UniProt Q12866)
# Experiment: as above
# Sequence of MERTK (Q12866 whole entry, looked up): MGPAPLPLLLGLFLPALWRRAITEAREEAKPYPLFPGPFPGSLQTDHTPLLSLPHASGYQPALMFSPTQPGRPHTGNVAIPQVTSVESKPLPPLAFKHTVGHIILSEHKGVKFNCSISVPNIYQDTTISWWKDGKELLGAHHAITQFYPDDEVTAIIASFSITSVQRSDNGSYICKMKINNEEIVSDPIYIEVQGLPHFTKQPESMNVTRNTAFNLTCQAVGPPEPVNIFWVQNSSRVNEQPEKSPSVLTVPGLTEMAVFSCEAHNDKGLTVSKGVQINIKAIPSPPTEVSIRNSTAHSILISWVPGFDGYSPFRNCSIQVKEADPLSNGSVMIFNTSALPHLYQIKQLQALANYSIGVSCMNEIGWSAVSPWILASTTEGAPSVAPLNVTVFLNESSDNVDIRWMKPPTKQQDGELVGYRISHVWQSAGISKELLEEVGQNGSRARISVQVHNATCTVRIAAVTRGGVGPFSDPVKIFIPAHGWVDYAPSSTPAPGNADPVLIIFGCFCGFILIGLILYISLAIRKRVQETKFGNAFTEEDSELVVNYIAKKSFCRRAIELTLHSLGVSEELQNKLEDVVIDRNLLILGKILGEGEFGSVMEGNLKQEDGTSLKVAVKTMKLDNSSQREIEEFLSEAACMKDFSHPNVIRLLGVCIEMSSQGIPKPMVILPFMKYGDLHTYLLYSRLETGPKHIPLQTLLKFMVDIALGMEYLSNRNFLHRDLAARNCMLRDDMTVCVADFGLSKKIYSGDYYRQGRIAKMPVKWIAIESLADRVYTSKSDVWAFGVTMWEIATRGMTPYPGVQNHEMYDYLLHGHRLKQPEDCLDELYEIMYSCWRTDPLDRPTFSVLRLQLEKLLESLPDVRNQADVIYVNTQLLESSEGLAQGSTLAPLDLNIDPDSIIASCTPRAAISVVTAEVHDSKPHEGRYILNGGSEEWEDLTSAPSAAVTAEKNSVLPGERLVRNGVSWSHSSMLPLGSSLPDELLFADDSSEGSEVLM
row,Sequence,phosphorylation enrichment
1,IENKLYGMSDS [RET_Y1062_P1067S],0.547
2,GVRLYYRVRES [RB1_Y454_M457R],0.403
3,KGERGYPGTPG [COL4A1_Y348],0.356
4,ANKNVYEVEPT [MEGF10_Y1075_R1072K],1.04
5,QQTFTYDSGIH [JUP_Y22_YF],0.793
6,ALKKPYGVLYK [RPF2_Y59],0.397
7,SAEEDYIADAK [KCNT1_Y876_M877I],0.456
8,SECCKYKIDNP [OSMR_Y689],0.419
9,FLAVGYHKLHI [IDS_Y225_P228L],0.471
10,TNYRLYLRSLE [MTM1_Y71],0.554
11,YQGGTYSKACT [FGG_Y380_S384C],0.459
12,LSDGPYSNPFE [EPOR_Y485_YF],0.534
13,DRFANYIEKVR [DES_Y122],0.367
14,PGIRMYRVQFN [LRFN1_Y454_Q455R_YF],0.652
15,WKEIEYEVVRD [CPS1_Y634],0.384
16,GHLFANDWISI [BEST1_Y227_Y227N_YF],0.421
17,KHGGNYVPAPE [OSCP1_Y237_K242E],0.345
18,GMAHNYRNRSQ [AASS_Y188_S191R],0.466
19,LAAPKYKLNVD [SMARCA2_Y1190_A1188P],0.346
20,PQAVRYIYTID [DCX_Y103_G100A],1.72
21,VSGIPYSQPKQ [NEU1_Y251_G252S],0.326
22,DAHFTYSRFPW [LY75_Y888_D884A_YF],3.89
23,NDHHVYLEGTL [ALDOB_Y223],0.435
24,HSRTRYERNIE [F2_Y434],0.763
25,QNTGDYCDLYG [PTPN11_Y62_Y63C],0.633
26,LVRPPYSFSAL [FOXI1_Y126_YF],0.363
27,LDCNEYFRDLN [HPRT1_Y198_Y195C],0.687
28,RLQEGYDHSYY [ESD_Y258],0.597
29,ATYRGYDSDNP [MMUT_Y146_H143Y],0.365

# System: c-Abl (mouse)
# Experiment: as above
row,Sequence,phosphorylation enrichment
1,IENKLYGMSDS [RET_Y1062_P1067S],0.678
2,GVRLYYRVRES [RB1_Y454_M457R],0.39
3,KGERGYPGTPG [COL4A1_Y348],0.42
4,ANKNVYEVEPT [MEGF10_Y1075_R1072K],0.6
5,QQTFTYDSGIH [JUP_Y22_YF],0.999
6,ALKKPYGVLYK [RPF2_Y59],0.675
7,SAEEDYIADAK [KCNT1_Y876_M877I],0.931
8,SECCKYKIDNP [OSMR_Y689],0.539
9,FLAVGYHKLHI [IDS_Y225_P228L],0.833
10,TNYRLYLRSLE [MTM1_Y71],1.31
11,YQGGTYSKACT [FGG_Y380_S384C],0.719
12,LSDGPYSNPFE [EPOR_Y485_YF],0.701
13,DRFANYIEKVR [DES_Y122],0.728
14,PGIRMYRVQFN [LRFN1_Y454_Q455R_YF],0.512
15,WKEIEYEVVRD [CPS1_Y634],0.573
16,GHLFANDWISI [BEST1_Y227_Y227N_YF],0.627
17,KHGGNYVPAPE [OSCP1_Y237_K242E],0.455
18,GMAHNYRNRSQ [AASS_Y188_S191R],0.57
19,LAAPKYKLNVD [SMARCA2_Y1190_A1188P],0.422
20,PQAVRYIYTID [DCX_Y103_G100A],1.01
21,VSGIPYSQPKQ [NEU1_Y251_G252S],0.416
22,DAHFTYSRFPW [LY75_Y888_D884A_YF],1
23,NDHHVYLEGTL [ALDOB_Y223],0.555
24,HSRTRYERNIE [F2_Y434],0.929
25,QNTGDYCDLYG [PTPN11_Y62_Y63C],1.34
26,LVRPPYSFSAL [FOXI1_Y126_YF],0.465
27,LDCNEYFRDLN [HPRT1_Y198_Y195C],1.15
28,RLQEGYDHSYY [ESD_Y258],1.11
29,ATYRGYDSDNP [MMUT_Y146_H143Y],0.476
